# Test results published in patent US20050048477A1 (published 2005).
# B1: Myr-Hom3p (other, yeast)
# chain: MGCTVSTQTIGDESDPMPMDFQPTSSHSNWVVQKFGGTSVGKFPVQIVDDIVKHYSKPDGPNNNVAVVCSARSSYTKAEGTTSRLLKCCDLASQESEFQDIIEVIRQDHIDNADRFILNPALQAKLVDDTNKELELVKKYLNASKVLGEVSSRTVDLVMSCGEKLSCLFMTALCNDRGCKAKYVDLSHIVPSDFSASALDNSFYTFLVQALKEKLAPFVSAKERIVPVFTGFFGLVPTGLLNGVGRGYTDLCAALIAVAVNADELQVWKEVDGIFTADPRKVPEARLLDSVTPEEASELTYYGSEVIHPFTMEQVIRAKIPIRIKNVQNPLGNGTIIYPDNVAKKGESTPPHPPENLSSSFYEKRKRGATAITTKNDIFVINIHSNKKTLSHGFLAQIFTILDKYKLVVDLISTSEVHVSMALPIPDADSLKSLRQAEEKLRILGSVDITKKLSIVSLVGKHMKQYIGIAGTMFTTLAEEGINIEMISQGANEINISCVINESDSIKALQCIHAKLLSERTNTSNQFEHAIDERLEQLKRLGI
# modifications: N-myristoylation at the N-terminal signal
# notes: Encoded on a pRS424 backbone under the ADH2 promoter; also called pGP130; not shown: CFP amplified from pDH3
# Target: T1, Gal80-Fpr1p fusion (yeast, UniProt P04387 1-435; P20081 1-114)
# T1 construct: Encoded on a pRS416 backbone; also called pGP82; not shown: 2 HA tags derived from oligonucleotides GANG33/34 (DNA only)
# T1 sequence (looked up): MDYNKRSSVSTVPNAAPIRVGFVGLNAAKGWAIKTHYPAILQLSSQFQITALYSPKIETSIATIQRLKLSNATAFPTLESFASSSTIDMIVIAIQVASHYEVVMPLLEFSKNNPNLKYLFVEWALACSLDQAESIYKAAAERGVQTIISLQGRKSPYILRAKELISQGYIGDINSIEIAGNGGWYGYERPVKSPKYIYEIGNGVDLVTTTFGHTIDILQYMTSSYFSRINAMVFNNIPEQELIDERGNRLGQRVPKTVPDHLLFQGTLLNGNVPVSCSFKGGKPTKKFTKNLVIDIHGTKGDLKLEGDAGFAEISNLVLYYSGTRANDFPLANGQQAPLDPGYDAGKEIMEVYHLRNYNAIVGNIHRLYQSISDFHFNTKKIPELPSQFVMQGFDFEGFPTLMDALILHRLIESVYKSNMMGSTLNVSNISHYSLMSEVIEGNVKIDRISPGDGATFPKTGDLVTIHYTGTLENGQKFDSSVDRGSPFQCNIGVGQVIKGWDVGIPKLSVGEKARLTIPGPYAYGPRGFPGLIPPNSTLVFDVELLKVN
# Experiment: 80-Trap assay in yeast, HIS3 reporter growth without galactose
# Description: FIG. 4A illustrates FK506-dependent HIS3 reporter expression. Gal80-Fpr1 designates the Gal80-Fpr1p fusion. Myr-Cna1 designates the plasma membrane targeted Cna1p. Myr-Cmd1 is a plasma membrane targeted calmodulin and is used as a control. The nutrient agar plates used here lacked histidine, tryptophan and uracil and contained 0.5% galactose/3% glycerol/2% lactic acid as carbon source. FK506 was used at 0.25 μg/mL where indicated. Identical results were obtained using nutrient agar lacking galactose (data not shown). […] The nutrient agar plate lacked histidine, tryptophan and uracil and contained 3% glycerol/2% lactic acid as carbon source. Galactose was used at 0.5% where indicated. The lack of tryptophan and uracil are required for selection and maintenance in yeast of the two plasmids Gal80-Fpr1p and Myr-Cna1p, and the lack of histidine is to provide a selective assay for the protein-protein interaction that activates the HIS3 reporter gene carried on a yeast chromosome.
# FK506 was used to trigger the interaction between a Gal80-Fpr1p fusion and plasma membrane-localized Myr-Can1p. […] Induction of the galactose-inducible HIS3 reporter gene was assayed. […] It has been reported that Fpr1p also interacts with Hom3p, the aspartokinase, in the absence of FK506 in a yeast two-hybrid assay (Alarcon and Heitman, 1997, Mol. Cell Bio., 17: 5968-5975).
binder,measurement,value
B1,binding result,binds
